From the supplement of paper PMC9233669
Variants at the floor of the assay were thinned out.

Tests used:
[1] = system: biotinyl-Trp-oxazolone; assay: self-aminoacylation, catalytic enhancement (BWO) (fold over background); higher = more active; k-Seq, kA / k0A0; sequences stand for … in GGGAAUGGAUCCACAUCUACGAAUUC…UUCACUGCAGACUUGACGAAGCUG
Method in brief: (§1)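 Catalytic enhancement equals the median kA over the uncatalyzed rate, the latter read from the low-activity peak of a bimodal Gaussian fit. Values of kA came from fitting each sequence's fraction reacted to a pseudo-first-order model, with 1000 bootstraps. Reacted RNA was captured with streptavidin and quantified by triplicate qPCR and Illumina sequencing after 90 minutes at room temperature with 2–1250 μM biotinyl-aminoacyl-oxazolone and 0.43 μM mutagenized RNA pools bearing a 21-nt variable region.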

[2] = system: biotinyl-Met-oxazolone; assay: self-aminoacylation, catalytic enhancement (BMO) (fold over background); higher = more active; k-Seq, kA / k0A0; sequences stand for … in GGGAAUGGAUCCACAUCUACGAAUUC…UUCACUGCAGACUUGACGAAGCUG
Method in brief: as §1

[3] = system: biotinyl-Ile-oxazolone; assay: self-aminoacylation, catalytic enhancement (BIO) (fold over background); higher = more active; k-Seq, kA / k0A0; sequences stand for … in GGGAAUGGAUCCACAUCUACGAAUUC…UUCACUGCAGACUUGACGAAGCUG
Method in brief: as §1

[4] = system: biotinyl-Leu-oxazolone; assay: self-aminoacylation, catalytic enhancement (BLO) (fold over background); higher = more active; k-Seq, kA / k0A0; sequences stand for … in GGGAAUGGAUCCACAUCUACGAAUUC…UUCACUGCAGACUUGACGAAGCUG
Method in brief: as §1

[5] = system: biotinyl-Phe-oxazolone; assay: self-aminoacylation, catalytic enhancement (BFO) (fold over background); higher = more active; k-Seq, kA / k0A0; sequences stand for … in GGGAAUGGAUCCACAUCUACGAAUUC…UUCACUGCAGACUUGACGAAGCUG
Method in brief: as §1

[6] = system: biotinyl-Val-oxazolone; assay: self-aminoacylation, catalytic enhancement (BVO) (fold over background); higher = more active; k-Seq, kA / k0A0; sequences stand for … in GGGAAUGGAUCCACAUCUACGAAUUC…UUCACUGCAGACUUGACGAAGCUG
Method in brief: as §1

| Sequence | self-aminoacylation [1] | self-aminoacylation [2] | self-aminoacylation [3] | self-aminoacylation [4] | self-aminoacylation [5] | self-aminoacylation [6] |
| --- | --- | --- | --- | --- | --- | --- |
| AUUCACCUAGGUCGUCCGGUG [Fam2.2 aminoacylation ribozyme variant] | 2.39 | 3.34 | 2.52 | 3.89 | 14.4 | 2.35 |
| CUUGACCUAGGUCAUCGGGUG [Fam2.2 aminoacylation ribozyme variant] | 5.2 | 3.39 | 3.43 | 4.42 | 23.2 | 3.87 |
| AUUAACGUGGUCAUCGAGUGA [Fam2.1 aminoacylation ribozyme variant] | 6.07 | 4.88 | 2.95 | 4.72 | 18.6 | 2.75 |
| AUUACCCUGAUCAUCGAAUGA [Fam2.1 aminoacylation ribozyme variant] | 0.561 | 0.93 | 0.936 | 0.898 | 0.602 | 0.871 |
| AUUAACCUAGGUCAUCGGGGG [Fam2.2 aminoacylation ribozyme variant] | 2.88 | 3.77 | 2.68 | 3.88 | 3.87 | 2.1 |
| CCACAUUUCACGCAAUCGGUC [Fam1B.1 aminoacylation ribozyme variant] | 2.16 | 2.75 | 2.33 | 2.68 | 2.13 | 2.68 |
| CUACUACAAACAAUCGGUCUG [Fam1A.1 aminoacylation ribozyme variant] | 0.73 | 0.634 | 0.694 | 0.608 | 1.24 | 0.743 |
| AUUACCCUGGUCACCGUGUGA [Fam2.1 aminoacylation ribozyme variant] | 5.51 | 3.88 | 1.98 | 3.95 | 21.1 | 2.06 |
| UUUACCCUGGUCAUCGAGUGU [Fam2.1 aminoacylation ribozyme variant] | 75.4 | 82.3 | 22.7 | 71.5 | 542 | 26.3 |
| AAGUUUGCGAAGAGUCGCAAG [Fam3.1 aminoacylation ribozyme variant] | 1 | 0.955 | 1.36 | 1.04 | 1.49 | 1.21 |
| AAGUUAUCUAAUAGUCGCAAG [Fam3.1 aminoacylation ribozyme variant] | 1.36 | 1.32 | 1.51 | 1.53 | 2.66 | 1.18 |
| CUACUUGAAAGAAUCGGUCUG [Fam1A.1 aminoacylation ribozyme variant] | 0.731 | 0.974 | 0.869 | 0.693 | 0.599 | 0.771 |
| CUACUUCAAACAAUCGCUCCG [Fam1A.1 aminoacylation ribozyme variant] | 1.02 | 0.713 | 0.768 | 0.775 | 1.08 | 0.926 |
| AAGUUUGUUAAUCGUCGCAAG [Fam3.1 aminoacylation ribozyme variant] | 1.04 | 1.35 | 1.21 | 1.15 | 1.05 | 1.22 |
| AUUCACCAAGGUUAUCGGGUG [Fam2.2 aminoacylation ribozyme variant] | 6.57 | 7.8 | 4.45 | 8.94 | 63.7 | 4.4 |
| AUUAACCCAGGUCAUCGGGUG [Fam2.2 aminoacylation ribozyme variant] | 5.58 | 6.61 | 4.38 | 8.17 | 36.2 | 3.58 |
| AUUACCCUGGACAUCGAGUGC [Fam2.1 aminoacylation ribozyme variant] | 0.573 | 0.807 | 0.87 | 0.793 | 1.19 | 0.852 |
| AUUAACCUAGGUCAUCGGGUG [Fam2.2 aminoacylation ribozyme variant] | 22.8 | 33.2 | 19.7 | 46.3 | 248 | 15.8 |
| AUGACCCUGGUCAUCUAGUGA [Fam2.1 aminoacylation ribozyme variant] | 9.46 | 8.18 | 3.75 | 8.57 | 63.5 | 3.7 |
| GUUACCCUGGUCAUCGAGUCA [Fam2.1 aminoacylation ribozyme variant] | 1.1 | 1.26 | 0.936 | 1.28 | 1.64 | 1.46 |
| AAGUUUACUUAUAGUCGCAAG [Fam3.1 aminoacylation ribozyme variant] | 1.74 | 1.92 | 1.86 | 1.39 | 2.5 | 1.58 |
| AAGUUUGAUAGUAGUCGCAAG [Fam3.1 aminoacylation ribozyme variant] | 1.21 | 1.17 | 0.973 | 0.977 | 0.93 | 0.979 |
| AUUAACCUGGUCAUCGCGUGA [Fam2.1 aminoacylation ribozyme variant] | 21.5 | 17.2 | 8.07 | 19.1 | 126 | 7.74 |
| CGACUUCAAACAAUCUGUCUG [Fam1A.1 aminoacylation ribozyme variant] | 1.84 | 0.815 | 0.926 | 0.664 | 3.02 | 0.86 |
| CUUCACCUAGGUCAUCAGGUG [Fam2.2 aminoacylation ribozyme variant] | 1.31 | 1.62 | 1.46 | 1.84 | 1.47 | 1.7 |
| AUUCACAUAGGUCAUCAGGUG [Fam2.2 aminoacylation ribozyme variant] | 1.85 | 1.41 | 1.2 | 1.63 | 1.62 | 1.4 |

| Sequence | self-aminoacylation [1] | self-aminoacylation [2] | self-aminoacylation [3] | self-aminoacylation [4] | self-aminoacylation [5] | self-aminoacylation [6] |
| --- | --- | --- | --- | --- | --- | --- |
| AUUCCCCUGGUCAUUGAGUGA [Fam2.1 aminoacylation ribozyme variant] | 11.7 | 8.79 | 4.73 | 8.32 | 64.3 | 4.5 |
| AAGUUUGCUAUUAGUCGAAAG [Fam3.1 aminoacylation ribozyme variant] | 0.825 | 1.18 | 1.07 | 0.914 | 1.06 | 0.834 |
| AUACUUCAAACAAGCGGUCUG [Fam1A.1 aminoacylation ribozyme variant] | 0.889 | 0.884 | 0.977 | 1.01 | 0.83 | 0.986 |
| AUUACCGUGGUCAUCCAGUGA [Fam2.1 aminoacylation ribozyme variant] | 6.67 | 5.39 | 3.52 | 5.29 | 28.8 | 3.32 |
| CCACACUAUAAGCAAUCGGUC [Fam1B.1 aminoacylation ribozyme variant] | 0.386 | 0.567 | 0.789 | 0.59 | 0.92 | 0.793 |
| UCACAGUUCAAGCAAUCGGUC [Fam1B.1 aminoacylation ribozyme variant] | 3.12 | 1.01 | 1.05 | 1.16 | 4.16 | 0.999 |
| UUUGCCCUGGUCAUCGAGUGA [Fam2.1 aminoacylation ribozyme variant] | 46.1 | 45.5 | 16.5 | 41 | 294 | 18.1 |
| ACUCACCUAGAUCAUCGGGUG [Fam2.2 aminoacylation ribozyme variant] | 5.49 | 2.99 | 2.9 | 3.38 | 26.9 | 3.13 |
| AUUCACCUAGGUGGUCGGGUG [Fam2.2 aminoacylation ribozyme variant] | 3.42 | 2.41 | 2.49 | 4.09 | 18.3 | 2.77 |
| AAGUUUGCUAAUCGUUGCAAG [Fam3.1 aminoacylation ribozyme variant] | 0.987 | 0.824 | 0.834 | 0.77 | 1.13 | 0.881 |
| CCACACUUCAAGCAGCCGGUC [Fam1B.1 aminoacylation ribozyme variant] | 1.68 | 1.32 | 1.97 | 1.82 | 0.916 | 1.56 |
| AAGGUUCCUAAUAGUCGCAAG [Fam3.1 aminoacylation ribozyme variant] | 1.43 | 1.64 | 1.61 | 1.5 | 1.62 | 1.39 |
| CUACUUCAAACAAUGGGUCUC [Fam1A.1 aminoacylation ribozyme variant] | 0.428 | 0.609 | 0.688 | 0.569 | 0.715 | 0.658 |
| AUUACCCUUGUCAACGAGUGA [Fam2.1 aminoacylation ribozyme variant] | 7.03 | 5.49 | 3.27 | 6.71 | 21.7 | 3.44 |
| AUUCAUGUAGGUCAUCGGGUG [Fam2.2 aminoacylation ribozyme variant] | 5.09 | 5.45 | 3 | 6.54 | 33.9 | 3.43 |
| CUAAUACAAACAAUCGGUCUG [Fam1A.1 aminoacylation ribozyme variant] | 0.678 | 0.674 | 0.676 | 0.477 | 0.757 | 0.682 |
| AUUCACCACGGUCAUCGGGUG [Fam2.2 aminoacylation ribozyme variant] | 10 | 9.37 | 5.71 | 12.3 | 68.7 | 6.13 |
| AUUCACCGAGGUUAUCGGGUG [Fam2.2 aminoacylation ribozyme variant] | 7.66 | 7.16 | 4.28 | 10 | 87.3 | 5.85 |
| GCACACUUCAAGGAAUCGGUC [Fam1B.1 aminoacylation ribozyme variant] | 4.35 | 1.55 | 1.67 | 1.61 | 3.95 | 1.22 |
| CCACACAUCAAGCAAUCGGCC [Fam1B.1 aminoacylation ribozyme variant] | 2.88 | 1.65 | 2.66 | 2.25 | 4.94 | 2.9 |
| CUGCUUCAAACAAUCGGUCUG [Fam1A.1 aminoacylation ribozyme variant] | 53.5 | 1.72 | 1.29 | 2.83 | 125 | 1.35 |
| AUUACUCUGGUCAUCCAGUGA [Fam2.1 aminoacylation ribozyme variant] | 6.01 | 5.01 | 3.2 | 5.29 | 17.3 | 2.74 |
| CCACUUCAAACAAUGGGUCUG [Fam1A.1 aminoacylation ribozyme variant] | 0.691 | 0.887 | 1.07 | 0.97 | 0.725 | 1.03 |
| ACUACCCUGGUCAUCUAGUGA [Fam2.1 aminoacylation ribozyme variant] | 7.62 | 7.5 | 3.86 | 7.72 | 63.1 | 3.97 |
| AUACACCUAGGUCAUCGGGGG [Fam2.2 aminoacylation ribozyme variant] | 1.22 | 1.29 | 1.85 | 1.39 | 4.96 | 1.73 |
